Test results reported in article PMC5046194.

Molecular target: recombinant Ku70 (human) (UniProt P12956)
Test: not stated; complex of recombinant Ku70 and IN; method of the Kd not told

Sequence of UniProt P12956 (P12956 whole entry): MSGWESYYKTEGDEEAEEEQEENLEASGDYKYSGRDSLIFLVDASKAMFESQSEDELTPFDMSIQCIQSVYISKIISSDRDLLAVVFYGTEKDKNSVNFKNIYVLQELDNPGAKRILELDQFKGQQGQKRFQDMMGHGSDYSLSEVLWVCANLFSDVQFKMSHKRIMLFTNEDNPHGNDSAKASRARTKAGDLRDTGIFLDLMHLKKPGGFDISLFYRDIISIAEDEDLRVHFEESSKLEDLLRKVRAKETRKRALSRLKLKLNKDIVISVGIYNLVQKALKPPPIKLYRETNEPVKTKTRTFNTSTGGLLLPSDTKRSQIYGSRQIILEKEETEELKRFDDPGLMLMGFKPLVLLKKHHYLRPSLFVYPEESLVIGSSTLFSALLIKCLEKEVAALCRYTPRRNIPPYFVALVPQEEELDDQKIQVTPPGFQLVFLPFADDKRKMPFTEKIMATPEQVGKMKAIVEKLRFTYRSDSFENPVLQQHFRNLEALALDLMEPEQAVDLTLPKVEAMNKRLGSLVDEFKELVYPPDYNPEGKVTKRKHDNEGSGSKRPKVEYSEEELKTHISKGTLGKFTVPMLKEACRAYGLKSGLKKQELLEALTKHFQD

Question: “recombinant His6-IN, wild type (HIV-1 integrase, abstract P13) (enzyme)” was tested. Which Kd did it give?
Answer: 0.07 µM
